Measured values taken from patent US20230241113A1 (IMMATICS BIOTECHNOLOGIES, published 2023).

target: T1, HLA-A*02:01 (human); assay: UV-ligand exchange + anti-β2m ELISA; exchange yield grade: ≥10% +, ≥20% ++, ≥50 +++, ≥75% ++++
T1 construct: captured on streptavidin plates, detected with anti-β2m; also called peptide-receptive MHC molecules; MHC class I
Procedure: The individual peptide-MHC complexes were produced by UV-ligand exchange, where a UV-sensitive peptide is cleaved upon UV-irradiation and exchanged with the peptide of interest as analyzed. Only peptide candidates that can effectively bind and stabilize the peptide-receptive MHC molecules prevent dissociation of the MHC complexes. To determine the yield of the exchange reaction, an ELISA was performed based on the detection of the light chain (β2m) of stabilized MHC complexes. The assay was performed as generally described in Rodenko et al. (Rodenko et al., 2006).
96 well MAXISorp plates (NUNC) were coated over night with 2 μg/ml streptavidin in PBS at room temperature, washed 4× and blocked for 1 h at 37° C. in 2% BSA containing blocking buffer. Refolded HLA-A*02:01/MLA-001 monomers served as standards, covering the range of 15-500 ng/ml. Peptide-MHC monomers of the UV-exchange reaction were diluted 100 fold in blocking buffer. Samples were incubated for 1 h at 37° C., washed four times, incubated with 2 μg/ml HRP conjugated anti-β2m for 1 h at 37° C., washed again and detected with TMB solution that is stopped with […]. Absorption was measured at 450 nm. Candidate peptides that show a high exchange yield (preferably higher than 50%, most preferred higher than 75%) are generally preferred for a generation and production of antibodies or fragments thereof, and/or T cell receptors or fragments thereof, as they show sufficient avidity to the MHC molecules and prevent dissociation of the MHC complexes.

Binder | peptide exchange yield
KIIEDLANTV (also called KIIEDLANTV) [KRT18-001] | ≥ 75%
STTIINLIL (From a human endogenous retrovirus; also called STTIINLIL) [HERVK-002] | 20 to 50%
LLLQIEPAA (also called LLLQIEPAA) [altORF-068] | ≥ 75%
KLPEGHLPEV (also called KLPEGHLPEV) [AHNAK2-003] | ≥ 75%
FLQEGDLISV (also called FLQEGDLISV) [altORF-007] | ≥ 75%
TLLSYSIPL (From a human endogenous retrovirus; also called TLLSYSIPL) [HERVK-003] | ≥ 75%
ALMDGSESRFFV (also called ALMDGSESRFFV) [BSG-001] | ≥ 75%
SLGPPPVGV (also called SLGPPPVGV) [CIZ1-001] | ≥ 75%
ILQSLVPAA (also called ILQSLVPAA) [altORF-006] | ≥ 75%
WLMPVMPAL (also called WLMPVMPAL) [altORF-069] | ≥ 75%
SLMEVTHDL (also called SLMEVTHDL) [LARS-001] | ≥ 75%
GLIDDKGTIKL (also called GLIDDKGTIKL) [CDC2-006] | ≥ 75%
